Measured values taken from article PMC10942467 (bioRxiv, 2024).

Target: 6X His-Raf1 (purified recombinant) (UniProt P04049 1-648, fluorescent label in the MST (kind and site not stated))
Assay: MST

- Kd: 183 nM
B1: GLS (purified recombinant) (enzyme)
chain: HPWWGGGGWPAEPLARGLSSSPSEILQELGKGSTHPQPGVSPPAAPAAPGPKDGPGETDAFGNSEGKELVASGENKIKQGLLPSLEDLLFYTIAEGQEKIPVHKFITALKSTGLRTSDPRLKECMDMLRLTLQTTSDGVMLDKDLFKKCVQSNIVLLTQAFRRKFVIPDFMSFTSHIDELYESAKKQSGGKVADYIPQLAKFSPDLWGVSVCTVDGQRHSTGDTKVPFCLQSCVKPLKYAIAVNDLGTEYVHRYVGKEPSGLRFNKLFLNEDDKPHNPMVNAGAIVVTSLIKQGVNNAEKFDYVMQFLNKMAGNEYVGFSNATFQSERESGDRNFAIGYYLKEKKCFPEGTDMVGILDFYFQLCSIEVTCESASVMAATLANGGFCPITGERVLSPEAVRNTLSLMHSCGMYDFSGQFAFHVGLPAKSGVAGGILLVVPNVMGMMCWSPPLDKMGNSVKGIHFCHDLVSLCNFHNYDNLRHFAKKLDPRREGGDQRVKSVINLLFAAYTGDVSALRRFALSAMDMEQRDYDSRTALHVAAAEGHVEVVKFLLEACKVNPFPKDRWNNTPMDEALHFGHHDVFKILQEYQVQYTPQGDSDNGKENQTVHKNLDGLL
